Measured values as given in patent publication US20260176683A1 (RIJKSUNIVERSITEIT GRONINGEN, published 2026).

T1: C-reactive protein (UniProt P02741 19-224)
T1 construct: also called CRP
T1 sequence: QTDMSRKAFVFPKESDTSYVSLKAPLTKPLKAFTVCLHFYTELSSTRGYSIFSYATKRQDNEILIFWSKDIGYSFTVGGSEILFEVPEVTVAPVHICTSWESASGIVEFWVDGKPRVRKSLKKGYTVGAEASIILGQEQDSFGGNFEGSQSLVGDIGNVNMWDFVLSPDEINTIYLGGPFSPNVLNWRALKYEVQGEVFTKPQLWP

B1: YaxAΔ40BN-strepII-70aa-flex nanopore (other)
chain 1: […]
chain 2: MSYYHHHHHHDYDIPTTENLYFQGWSHPQFEKGSSGSTSNASAGTGSATGSNSTAGASSGNSAGTGTSSGSTGSANSSAGTGSGSATASAGNSGTSTAGNSTAEISTFPHSGLSYPDINFKIFSQGVKNISHLAQFKTTGVEVLQEKALRVSLYSQRLDVIVRESLSSLQVKLENTLALTYFTTLEEIDEALISQDIDEESKSEMRKERINIIKNLSNDITQLKQLFIEKTELLDKSSSDLHNVVIIEGTDKVLQAEQLRQKQLTEDIATKELERKEIEKKRDKIIEALDVIREHNLVDAFKDLIPTGENLSELDLAKPEIELLKQSLEITKKLLGQFSEGLKYIDLTDARKKLDNQIDTASTRLTELNRQLEQSEKLIAGVNAIIKIDQEKSAVVVEAEKLSRAWHIFIHEITALQGTSLNEVELSKPLIKQQIYLESLIKQLI
B2: His6-TEV-YaxA (full-length YaxA monomer) (other)
chain: MSYYHHHHHHDYDIPTTENLTRSSENLYFQSGGTQTQLAIDNVLASAESTIQLNELPKVVLDFITGEQTSVARSGGIFTKEDLINLKLYVRKGLSLPTRQDEVEAYLGYKKIDVAGLEPKDIKLLFDEIHNHALNWNDVEQAVLQQSLDLDIAAKNIISTGNEIINLINQMPITLRVKTLLGDITDKQLENITYESADHEVASALKDILDDMKGDINRHQTTTENVRKKVSDYRITLTGGELSSGDKVNGLEPQVKTKYDLMEKSNMRKSIKELDEKIKEKRQRIEQLKKDYDKFVGLSFTGAIGGIIAMAITGGIFGAKAENARKEKNALISEVAELESKVSSQRALQTALEALSLSFSDIGIRMVDAESALNHLDFMWLSVLNQITESQIQFAMINNALRLTSFVNKFQQVITPWQSVGDSARQLVDIFDEAIKEYKKVYG

Experiments:
C-reactive protein = target: T1, C-reactive protein; assay: single-nanopore electrophysiology, CRP added to cis
[1] = target: His6-TEV-YaxB (full-length YaxB monomer) (Yersinia enterocolitica); assay: 1:1 mixing of monomers, SEC, insertion into lipid bilayers

Row | Binder | binding result (C-reactive protein) | binding result [1]
1 | B1 | no binding (tested: 20 nM CRP) | 
2 | B2 |  | binds
